For experiment [1], the target named is T1, HU-RAGE-SA (human, UniProt Q15109 23-342).
T1 construct: extracellular domain; Directly immobilized on a CM5 chip (~100 RU); also called hRAGE-SA; soluble human streptavidin-tagged RAGE; not shown: streptavidin tag (SA)
Description: BIAcore kd against parental M4 scFv-Fc. In general terms: SPR reads the build-up and loss of mass on a sensor chip optically.

The target in a further experiment is T2, hRAGE-Fc (human, UniProt Q15109 23-342, biotin label in the selections and HTRF assays).
T2 construct: extracellular domain; also called biotin labeled hRAGE-Fc; Biotin-labeled RAGE-Fc; not shown: Fc part
Description: IC50 of parental M4 scFv-Fc over IC50 of clone, HTRF competition. Background: Time-resolved FRET reads energy transfer from a long-lived donor to a nearby acceptor.

Experiment [2] deals with T3, human RAGE expressed on CHO cells (human, UniProt Q15109 23-404).
T3 construct: whole, on cells; also called CHO-RAGE cells; cell surface expressed human RAGE
Put plainly: cell ELISA on CHO-RAGE cells, A450 corrected for control CHO cells. How it is done: Stably transfected Chinese Hamster Ovary (CHO) cells were engineered to express murine and human RAGE full length proteins. The murine and human RAGE cDNAs were cloned into the mammalian expression vector pSMED, linearized and transfected into CHO cells using lipofectin methods (Kaufman, R. J., 1990, Methods in Enzymology 185:537-66; Kaufman, R. J., 1990, Methods in Enzymology 185:487-511; Pittman, D. D. et al., 1993, Methods in Enzymology 222: 236). Cells were further selected in 20 nM methotrexate and cell extracts were harvested from individual clones and analyzed by SDS sodium dodecyl sulfate-polyacrylamide gel electrophoresis (SDS-PAGE) and Western blotting to confirm expression. […] Absorbance 450 nm values were corrected for the same clones binding to control CHO cells not expressing RAGE. EC50 values were calculated after curve fitting using GraphPad prism and are expressed in μg/ml.

The target of experiment [3] is T1, HU-RAGE-SA. Put plainly: BIAcore, 10 nM scFv-Fc over directly immobilized HU-RAGE-SA, 1:1 fit.

T3 sequence (Q15109 23-404): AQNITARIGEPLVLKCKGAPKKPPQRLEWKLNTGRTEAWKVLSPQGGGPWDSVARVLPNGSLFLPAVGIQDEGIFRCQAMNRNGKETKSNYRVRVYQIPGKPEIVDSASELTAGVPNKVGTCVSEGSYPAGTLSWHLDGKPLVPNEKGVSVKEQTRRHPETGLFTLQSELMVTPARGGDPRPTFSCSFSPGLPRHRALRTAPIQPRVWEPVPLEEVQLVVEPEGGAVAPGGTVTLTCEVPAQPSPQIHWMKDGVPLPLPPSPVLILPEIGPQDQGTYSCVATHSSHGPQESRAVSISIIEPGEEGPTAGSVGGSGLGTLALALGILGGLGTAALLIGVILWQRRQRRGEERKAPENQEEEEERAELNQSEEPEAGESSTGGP
T2 sequence (Q15109 23-342): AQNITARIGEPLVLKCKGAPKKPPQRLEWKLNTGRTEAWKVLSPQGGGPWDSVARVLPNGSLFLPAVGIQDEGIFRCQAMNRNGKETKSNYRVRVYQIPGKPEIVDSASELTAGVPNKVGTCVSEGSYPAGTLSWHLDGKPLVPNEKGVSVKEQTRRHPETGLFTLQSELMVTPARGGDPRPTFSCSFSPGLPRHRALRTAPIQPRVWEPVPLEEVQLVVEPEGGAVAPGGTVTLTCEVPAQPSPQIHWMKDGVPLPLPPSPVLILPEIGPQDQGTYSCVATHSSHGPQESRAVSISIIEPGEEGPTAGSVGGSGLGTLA
T1 sequence (Q15109 23-342): as above

B1: 3G5 scFv-Fc fusion (Fc fusion)
chain: DIQMTQSPSSLSASVGDRVTITCRASQDVGIYVNWFQQKPGKAPRRLIYRATNLADGVPSRFSGSRSGTDFTLTISSLQPEDFATYYCLEFDEHPLTFGGGTKVEIKDGGGSGGGGSGGGGSSEVQLVESGGGLVQPGGSLRLSCAASGFTFNNYWMTWVRQAPGKGLEWVASIDNSGDNTYYPDSVKDRFTISRDNAKNSLYLQMNSLRAEDTAVYYCARGGDILDSLPYWGQGTLVTVSS
notes: Substitutions derived from the printed HCDR3; not shown: wild-type human IgG Fc (hinge and constant domains)
A word on the EC50: it is the concentration at which the effect is half-maximal. The term koff denotes the first-order rate constant of dissociation. B1: the “Fold change in kd” value with HU-RAGE-SA [1] was 65.1 fold. Besides, the “Fold gain scFv-Fc (hRAGE)” value in the experiment with hRAGE-Fc is 62.7 fold. The concentration for a half-maximal effect (EC50) in experiment [2] is 0.0565 µg/mL. The same molecule displayed a dissociation rate constant (koff) with HU-RAGE-SA [3] of 0.00045 s⁻¹.

B2: 6C3 scFv-Fc fusion (Fc fusion)
chain: DIQMTQSPSSLSASVGDRVTITCRASQDVGIYVNWFQQKPGKAPRRLIYRATNLADGVPSRFSGSRSGTDFTLTISSLQPEDFATYYCLEFDEHPLTFGGGTKVEIKDGGGSGGGGSGGGGSSEVQLVESGGGLVQPGGSLRLSCAASGFTFNNYWMTWVRQAPGKGLEWVASIDNSGDNTYYPDSVKDRFTISRDNAKNSLYLQMNSLRAEDTAVYYCARGGDITLGLDVWGQGTLVTVSS
notes: not shown: wild-type human IgG Fc (hinge and constant domains)
For B2, in the experiment with HU-RAGE-SA [1], the “Fold change in kd” value was found to be 60 fold. For the same molecule, the “Fold gain scFv-Fc (hRAGE)” value with hRAGE-Fc was found to be 38.6 fold. This molecule also came in with an EC50 in experiment [2] of 0.155 µg/mL. In the experiment with HU-RAGE-SA [3], this molecule returned a koff of 0.000488 s⁻¹.

B3: 10G10 scFv-Fc fusion (Fc fusion)
chain: DIQMTQSPSSLSASVGDRVTITCRASQDVGIYVNWFQQKPGKAPRRLIYRATNLADGVPSRFSGSRSGTDFTLTISSLQPEDFATYYCLEFDEHPLTFGGGTRVEIKDGGGSGGGGSGGGGSSEVQLVESGGGLVQPGGSLRLSCAASGFTFNNYWMSWVRQAPGKGLEWVASIDNSGENTYYPDSVKDRFTISRDNAKNSLYLQMNSLRAEDTAVYYCARGGDITTGFDYWGQGTLVTVSS
notes: as for B2
For the molecule B3, the “Fold change in kd” value in the experiment with HU-RAGE-SA [1] worked out at 0.28 fold. The “Fold gain scFv-Fc (hRAGE)” value with hRAGE-Fc worked out at 5 fold. In addition, the EC50 in experiment [2] is 0.133 µg/mL. Further, the koff with HU-RAGE-SA [3] is 0.105 s⁻¹.

B4: 10D8 scFv-Fc fusion (Fc fusion)
chain: DIQMTQSPSSLSASVGDKVTITCRASQDVGFYVNWFQQKPGKAPRRLIYRATNLADGVPSRFSGSRSGTDFTLTISSLQPEDFATYYCLEFDEHPLTFGGGTKVEIKDGGGSGNGGSGGGGSSEVQLVESGGELVQPGGSLRLSCAASGFTFNNYWMTWVRQAPGKGLEWVASIDNSGDNTYYPDSVKDRFTISRDNAKNSLYLQMNSLRAEDTAVYYCARGGDITTGFDYWGQGTLVTVSS
notes: also called 10D8 (b); not shown: wild-type human IgG Fc (hinge and constant domains)
B4: in the experiment with HU-RAGE-SA [1], the “Fold change in kd” value is 51.8 fold. Further, the “Fold gain scFv-Fc (hRAGE)” value with hRAGE-Fc was found to be 8.8 fold. Moreover, a half-maximal response in experiment [2] (EC50) required 0.092 µg/mL. The same molecule showed an off-rate constant (koff) with HU-RAGE-SA [3] of 0.000566 s⁻¹.

B5: 6B2 scFv-Fc fusion (Fc fusion)
chain: DIQMTQSPSSLSASVGDRVTITCRASQDVGIYVNWFQQKPGKAPRRLIYRATNLADGVPSRFSGSRSGTDFTLTISSLQPEDFATYYCLEFDEHPLTFGGGTKVEIKDGGGSGGGGSGGGGSSEVQLVESGGGLVQPGGSLRLSCAASGFTFNNYWMTWVRQAPGKGLEWVASIDNSGDNTYYPDSVKDRFTISRDNAKNSLYLQMNSLRAEDTAVYYCARGGDIRVGLDVWGQGTLVTVSS
notes: as for B1
Take B5: the “Fold change in kd” value in the experiment with HU-RAGE-SA [1] stood at 61 fold. For the same molecule, the “Fold gain scFv-Fc (hRAGE)” value with hRAGE-Fc turned out to be 8.2 fold. The midpoint of the response in experiment [2], the EC50, lay at 0.0816 µg/mL. The off-rate constant (koff) in the experiment with HU-RAGE-SA [3] came to 0.000484 s⁻¹.

B6: 6C2 scFv-Fc fusion (Fc fusion)
chain: DIQMTQSPSSLSASVGDRVTITCRASQDVGIYVNWFQQKPGKAPRRLIYRATNLADGVPSRFSGSRSGTDFTLTISSLQPEDFATYYCLEFDEHPLTFGGGTKVEIKDGGGSGGGGSGGGGSSEVQLVESGGGLVQPGGSLRLSCAASGFTFNNYWMTWVRQAPGKGLEWVASIDNSGDNTYYPDSVKDRFTISRDNAKNSLYLQMNSLRAEDTAVYYCARGGDIKVSLDRWGQGTLVTVSS
notes: as for B2
On to B6, for which, in the experiment with HU-RAGE-SA [1], the “Fold change in kd” value was 19.2 fold. The “Fold gain scFv-Fc (hRAGE)” value with hRAGE-Fc is 9.4 fold. The same molecule registered an EC50 in experiment [2] of 0.0285 µg/mL. Also, the off-rate (koff) with HU-RAGE-SA [3] came out at 0.00153 s⁻¹.

B7: 6B6 scFv-Fc fusion (Fc fusion)
chain: DIQMTQSPSSLSASVGDRVTITCRASQDVGIYVNWFQQKPGKAPRRLIYRATNLADGVPSRFSGSRSGTDFTLTISSLQPEDFATYYCLEFDEHPLTFGGGTKVEIKDGGGSGGGGSGGGGSSEVQLVESGGGLVQPGGSLRLSCAASGFTFNNYWMTWVRQAPGKGLEWVASIDNSGDNTYYPDSVKDRFTISRDNAKNSLYLQMNSLRAEDTAVYYCARGGDIIISLDWWGQGTLVTVSS
notes: as for B1
Consider B7, for which the “Fold change in kd” value in the experiment with HU-RAGE-SA [1] came out at 20.8 fold. Further, the “Fold gain scFv-Fc (hRAGE)” value in the experiment with hRAGE-Fc worked out at 7.6 fold. The same molecule yielded a concentration for a half-maximal effect (EC50) in experiment [2] of 0.0285 µg/mL. The molecule further gave a dissociation rate constant (koff) in the experiment with HU-RAGE-SA [3] of 0.00141 s⁻¹.

B8: 8G9 scFv-Fc fusion (Fc fusion)
chain: DIQMTQSPSSLSASVGDRVTITCRASQDVGIYVNWFQQKPGKAPRRLIYRATNLADGVPSRFSGSRSGTDFTLTISSLQPEDFATYYCLEFDEHPLTFGGGTKVEIKDGGGSGGGGSGGGGSSEVQLVESGGGLVQPGSSLRLSCAASGFTFNNYWMTWVRQAPGKGLEWVASIDNSGDNTYYPDSVKDRFTISRDNAKNSLYLQMNSLRAEDTAVYYCARGGDITTGLDYWGQGTLVTVSS
notes: as for B2
As to B8, the “Fold change in kd” value in the experiment with HU-RAGE-SA [1] was found to be 3.9 fold. The “Fold gain scFv-Fc (hRAGE)” value with hRAGE-Fc is 5.1 fold. This molecule returned an EC50 in experiment [2] of 0.077 µg/mL. Besides, in the experiment with HU-RAGE-SA [3], the koff was found to be 0.00344 s⁻¹.

B9: 5A3 scFv-Fc fusion (Fc fusion)
chain: DIQMTQSPSSLSASVGDIVTITCRASQDVGIYVNWFQQKPGKAPRRLIYRATNLADGVPSRFSGSRSSTDFTLTISSLQPEDFATYYCLEFDEHPLTFGGGTKVEIKDGGGSGGGGSGGGGSSEVQLVESGGGLVQPGGSLRLSCAASGFTFNNYWMTWVRQAPGKGLEWVASIDNSGDNTYYPDSVKDRFTISRDNAKNSLYLKMNSLRAEDTAVYYCTRGGDITTGLDYWGQGTLVTVSS
notes: as for B2
Regarding B9, the “Fold change in kd” value in the experiment with HU-RAGE-SA [1] came to 5.9 fold. The “Fold gain scFv-Fc (hRAGE)” value in the experiment with hRAGE-Fc came to 12.2 fold. Moreover, the midpoint of the response in experiment [2], the EC50, lay at 0.096 µg/mL. This molecule registered a koff with HU-RAGE-SA [3] of 0.00494 s⁻¹.

The values are drawn from patent US20100143349A1 (Pfizer, published 2010).
